Measured values taken from doi:10.1101/2023.12.22.573140.

Tests used:
Assay in all cases: ITC
[1] = biological target: TGF-β type II receptor (TβRII) (UniProt P37173)
[2] = biological target: TGM6 domain 3 (TGM6-D3) (Heligmosomoides polygyrus)
[3] = biological target: TGF-β mimic 6 (TGM6), full-length (Heligmosomoides polygyrus)

Substance	fold decrease in binding affinity against wild type [1] [fold]	also measured
TGM1-D3 S242R (domain or fragment)		fold gain of binding affinity against wild type [1]: 4 fold
TGF-β type II receptor (TβRII) (from UniProt P37173 46-155)		Kd [2]: 440 nM; Kd [3]: 220 nM
TGM6-D3 R95A (domain or fragment)	11.6	
TGM6-D3 R38A (domain or fragment)	22	
TGM6-D3 R82A (domain or fragment)	11 to 12	
TGM6-D3 R82S (domain or fragment)		fold loss of binding affinity against wild type [1]: 7.4 fold
TGM6-D3 Y80A (domain or fragment)	134	
TGM6-D3 Y80F (domain or fragment)	3.5	
TGM6-D3 I78A (domain or fragment)	15.4	
TGM6-D3 Y93A (domain or fragment)	108	
